Data on one molecule can be found in publication PMC9209446, “Structural basis of template strand deoxyuridine promoter recognition by a viral RNA polymerase”.

The target in the data set is AR9 nvRNAP promoter-specificity subunit gp226 (sigma-like);AR9 nvRNAP betaN subunit gp105;AR9 nvRNAP betaC … (Bacillus phage AR9 (Bacillus subtilis …, UniProt A0A172JIC8;A0A172JI16;A0A172JHZ2;A0A172JIH0;A0A172JI62 …, ||||)). Briefly: X-ray crystallography; crystals from 150 mM MIB pH 5, 150 mM LiCl, 13% PEG 1500; 4 mM MgCl2 in DNA annealing buffer; Complex for structures: 34 uM holoenzyme + 50 uM DNA, 30 min at room temperature; DNA annealed in 20 mM Bis-tris propane pH 6.8, 100 mM NaCl, 4 mM MgCl2, 0.5 mM EDTA; crystallized at 19 C. To be noted: protein: recombinant;recombinant;recombinant;recombinant;recombinant; tags: ;;;;; copies: 1;1;1;1;1; 14 bp duplex with 18 nt 3' overhang on strand 1.

B1: P077 promoter forked oligonucleotide, template [-16;+16] all U / non-template [+3;+16] (dsDNA)
DNA 1: CTCCAATATGTGATATAATATAUUGUUUATTG
DNA 2: ATCACATATTGGAG
modifications: deoxyuridine at the printed U positions of strand 1; both strands DNA
In the case of B1, the binding result is reported as “binds”.
